We go through one molecule from patent US20240254229A1 (Molecular Partners, published 2024).

In assay [1] the target is T1, hCD33 and hCD123 immobilized simultaneously on one switchSENSE chip (ratio 2:1, CD33:CD123) (human, UniProt P20138 18-259; P26951 19-305, limits assumed).
T1 construct: Not a complex: two separate ligands on one surface; used for avidity values and for off-rates; also called both ligands; both targets attached to the surface of the chip
Briefly: switchSENSE, CD33 and CD123 on one chip; fast phase (affinity); fast phase (affinity). The procedure:
(§1) The designed ankyrin repeat proteins: DARPin® protein #20, DARPin® protein #21, DARPin® protein #22, DARPin® protein #27, DARPin® protein #40 and DARPin® protein #41 were tested in a concentration of 0.16 and 64 nM (in a buffer PE140 containing 10 mM Na2HPO4/NaH2PO4, 140 mM NaCl, 0.05% Tween20, 50 μM EDTA, 50 μM EGTA) for binding against two ligands hCD33 and hCD123, which both were immobilized simultaneously to DNA nanolevers, on the surface, at a pre-defined ratio (2:1, CD33:CD123) and 10% density (100:50) on an ADP-48-1-0 chip, where 100% density 1000 receptors/μm2 (preincubated R1-B48-CD123 and G1-A48-CD33 (100 nM) diluted in cNL-48 (dark)). Briefly the following steps were performed: [0724] Conjugation. Amine coupling of the two ligands (CD33 and CD123) to the DNA nanolever (A48, B48, respectively) and purification of the conjugates using the proFIRE® solution (Dynamic Biosensors GmbH) at 25° C. [0725] Evaluation of all the combined affinity and avidity of all different proteins to both ligands attached on the surface of an ADP chip using a DRX+ instrument (dynamic BIOSENSORS). [0726] Statistical analysis (repeatability from 2 to 5 times) including regeneration of the chip surface every concentration analyzed and long dissociation times and data were fitted using a bi-exponential global fit.

Assay [2] has as its target T2, hCD33 (recombinant, construct not stated) (human, UniProt P20138 18-259, limits assumed).
T2 construct: also called CD33 (Ligand 1)
Briefly: switchSENSE, hCD33 and hCD123 co-immobilised 2:1; panel headed CD33, column KD1 (affinity).

In assay [3] the target is T3, biotinylated extracellular domain of human CD33 (SEQ ID NO: 87), Fc and Avi tagged (human, UniProt P20138 18-259, biotinylated with BirA-GST (Avi tag)).
T3 construct: also called hCD33; human target hCD33
In words: SPR (ProteOn XPR36), target on GLC chip, DARPin as analyte.

For assay [4], the target named is T4, hCD123 (recombinant, construct not stated) (human, UniProt P26951 19-305, limits assumed).
T4 construct: also called CD123 (Ligand 2)
T4 sequence (looked up): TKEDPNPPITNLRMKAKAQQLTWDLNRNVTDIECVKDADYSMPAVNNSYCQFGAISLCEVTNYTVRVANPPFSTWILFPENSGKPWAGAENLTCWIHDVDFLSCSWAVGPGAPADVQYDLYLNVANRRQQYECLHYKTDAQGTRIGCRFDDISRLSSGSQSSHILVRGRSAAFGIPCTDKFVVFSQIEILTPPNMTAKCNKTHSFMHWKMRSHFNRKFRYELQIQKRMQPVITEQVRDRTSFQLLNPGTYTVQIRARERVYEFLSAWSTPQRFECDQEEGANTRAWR
Briefly: switchSENSE, hCD33 and hCD123 co-immobilised 2:1; panel headed CD123, column KD1 (affinity). As for the experimental part: as §1

Assay [5] concerns the target T4, hCD123 (recombinant, construct not …). In words: switchSENSE; KD,1 (affinity). As for the experimental part:
as §1

Assay [6] addresses T2, hCD33 (recombinant, construct not …). Briefly: switchSENSE; KD,1 (affinity). As for the experimental part:
as §1

Assay [7] addresses T1, hCD33 and hCD123 immobilized …. In words: switchSENSE; KD,2 (avidity, simultaneous binding of CD33 and CD123). As for the experimental part:
as §1

The target is the same in assay [8]. In words: switchSENSE; KD,2 against KD,1. As for the experimental part:
as §1

Where only a bound is given, the exact number is not on record here.

T2 sequence (P20138 18-259 limits assumed): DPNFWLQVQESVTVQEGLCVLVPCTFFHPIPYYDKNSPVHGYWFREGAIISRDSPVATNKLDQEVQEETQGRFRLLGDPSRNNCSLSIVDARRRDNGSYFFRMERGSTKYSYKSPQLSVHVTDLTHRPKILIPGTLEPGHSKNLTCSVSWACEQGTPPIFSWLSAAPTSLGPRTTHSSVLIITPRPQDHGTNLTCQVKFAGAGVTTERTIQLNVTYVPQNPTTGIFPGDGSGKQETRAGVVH
T3 sequence (P20138 18-259 R69G): as the sequence (P20138 18-259 limits assumed) above, with R52G counted along it

B1: DARPin® protein #27 (designed binder)
chain: DLGKKLLEAALEGQLDEVRELLKAGADVNAKDQEGYTPLHLAAALGHLEIVEVLLKAGADVNAKDSIGRTPLHLAAYKGHLEIVEVLLKAGADVNAQDLLGETPADLAAEQGHQDIAEVLQKAAGSPTPTPTTPTPTPTTPTPTPTGSDLGVKLLLAASRGQLDEVRILLKAGADVNAKDIDEGYTPLHIAAYYGHLEIVEVLLKAGADVNAKDRYGKTPLHLAAISGHLEIVEVLLKAGADVNAQDDKGDTPADLAADYGHQDIAEVLQKAAGSPTPTPTTPTPTPTTPTPTPTGSDLGQKLLEAAWAGQDDEVRELLKAGADVNAKNSRGWTPLHTAAQTGHLEIFEVLLKAGADVNAKDDKGVTPLHLAAALGHLEIVEVLLKAGADVNAQDSWGTTPADLAAKYGHEDIAEVLQKAA
notes: CD123-CD33-CD3; also called αCD123-aCD33-αCD3_1; not shown: N-terminal His-tag
As a reminder, the koff is the first-order rate constant of dissociation. Consider B1, for which the dissociation rate constant (koff) in assay [1] was ~0.01 s⁻¹. Further, the Kd in assay [2] was 20 nM; in assay [3] it was 5.7 nM; in assay [4], 4.5 nM; in assay [5], ~4.5 nM; in assay [6], ~20 nM; in assay [7], 0.2 to 0.3 nM. The “fold lower KD,2 (avidity) than the measured affinity” value in assay [8] is ≥ 14 fold.
